The experiment addresses T1, human ROR1 on cells (human, UniProt Q01973 30-937).
T1 construct: whole, on cells
Put plainly: Scatchard plot of 125I-labelled 009-G03 binding to RPMI-8226 cells, 2.5 h on ice. On the procedure:
Antibody was labelled with ¹²⁵I using free Iodine and test tubes pre-coated with the oxidant reagent Iodogen (1,3,4,6-tetrachloro-3α,6α-diphenylglycoluri, Thermo scientific), according to manufactures instruction. Briefly 200 μg of antibody was labeled for 10 minutes in PBS and free iodine were removed using a small disposable desalting columns (NAP 5, GE Healthcare Life science). […] 0.5×10⁶ cells were incubated for 2.5 h on ice with different concentrations of ¹²⁵I-labelled 009-G03 antibody. Free nonbinding antibody (F) was separated from cell bound antibody (B) by centrifugation through a 40% Ficoll-cushion and samples were analysed in a gamma counter (FIG. 29).

T1 sequence (Q01973 30-937): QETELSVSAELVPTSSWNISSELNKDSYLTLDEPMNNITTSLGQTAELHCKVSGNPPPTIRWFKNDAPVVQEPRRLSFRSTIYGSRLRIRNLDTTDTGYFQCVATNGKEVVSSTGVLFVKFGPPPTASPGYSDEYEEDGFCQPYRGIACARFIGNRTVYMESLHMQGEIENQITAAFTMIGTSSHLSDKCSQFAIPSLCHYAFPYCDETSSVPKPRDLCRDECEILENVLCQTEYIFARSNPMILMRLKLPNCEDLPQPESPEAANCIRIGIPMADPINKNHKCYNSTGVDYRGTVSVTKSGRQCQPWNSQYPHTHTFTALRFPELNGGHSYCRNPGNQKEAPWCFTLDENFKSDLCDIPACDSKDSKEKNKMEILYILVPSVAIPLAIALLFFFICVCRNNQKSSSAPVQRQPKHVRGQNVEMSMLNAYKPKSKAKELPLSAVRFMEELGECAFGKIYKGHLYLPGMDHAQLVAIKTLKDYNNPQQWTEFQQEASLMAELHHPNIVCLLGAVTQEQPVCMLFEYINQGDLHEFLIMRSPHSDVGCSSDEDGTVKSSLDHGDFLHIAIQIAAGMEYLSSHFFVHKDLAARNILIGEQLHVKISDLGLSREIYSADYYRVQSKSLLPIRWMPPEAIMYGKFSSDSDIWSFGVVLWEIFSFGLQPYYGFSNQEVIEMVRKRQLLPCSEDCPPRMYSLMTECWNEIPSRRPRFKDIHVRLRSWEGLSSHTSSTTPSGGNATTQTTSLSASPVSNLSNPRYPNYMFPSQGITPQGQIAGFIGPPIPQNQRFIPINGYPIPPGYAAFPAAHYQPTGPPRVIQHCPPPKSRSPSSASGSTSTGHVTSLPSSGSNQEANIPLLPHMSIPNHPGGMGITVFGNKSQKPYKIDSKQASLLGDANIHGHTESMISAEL

B1: ROR1-009-G03 (antibody, V domains shown)
VH: EVQLLESGGGLVQPGGSLRLSCAASGFTFSDYYMSWIRQAPGKGLEWVSAISGSGGSTYYADSVKGRFTISRDNSKNTLYLQMNSLRAEDTAVYYCAKEDWEGASFDYWGQGTLVTVSS
VL: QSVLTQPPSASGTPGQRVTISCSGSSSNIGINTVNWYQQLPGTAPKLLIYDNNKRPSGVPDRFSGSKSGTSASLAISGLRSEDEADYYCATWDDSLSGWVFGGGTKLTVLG
notes: also called ROR 009 G03; ROR1 specific mAb 009-G03
A word on the Kd: it is the equilibrium constant for the complex coming apart. A higher Kd goes with a looser complex. The molecule B1 showed a Kd of 1 nM.
